B1: ETA, wild type, as used in the size exclusion chromatography analysis with Fab301, P25101 E234A (protein)
chain: DNPERYSTNLSNHVDDFTTFRGTELSFLVTTHQPTNLVLPSNGSMHNYCPQQTKITSAFKYINTVISCTIFIVGMVGNATLLRIIYQNKCMRNGPNALIASLALGDLIYVVIDLPINVFKLLAGRWPFDHNDFGVFLCKLFPFLQKSSVGITVLNLCALSVDRYRAVASWSRVQGIGIPLVTAIEIVSIWILSFILAIPEAIGFVMVPFEYRGAQHKTCMLNATSKFMEFYQDVKDWWLFGFYFCMPLVCTAIFYTLMTCEMLNRRNGSLRIALSEHLKQRREVAKTVFCLVVIFALCWFPLHLSRILKKTVYNEMDKNRCELLSFLLLMDYIGINLATMNSCINPIALYFVSKKFKNCFQSCLCCCCYQSKSLMTSVPMNGTSIQWKNHDQNNHNTDRSSHKDSMN
B2: ETA, wild type, as used in the size exclusion chromatography analysis with Fab301, P25101 Y231A (protein)
chain: DNPERYSTNLSNHVDDFTTFRGTELSFLVTTHQPTNLVLPSNGSMHNYCPQQTKITSAFKYINTVISCTIFIVGMVGNATLLRIIYQNKCMRNGPNALIASLALGDLIYVVIDLPINVFKLLAGRWPFDHNDFGVFLCKLFPFLQKSSVGITVLNLCALSVDRYRAVASWSRVQGIGIPLVTAIEIVSIWILSFILAIPEAIGFVMVPFEARGEQHKTCMLNATSKFMEFYQDVKDWWLFGFYFCMPLVCTAIFYTLMTCEMLNRRNGSLRIALSEHLKQRREVAKTVFCLVVIFALCWFPLHLSRILKKTVYNEMDKNRCELLSFLLLMDYIGINLATMNSCINPIALYFVSKKFKNCFQSCLCCCCYQSKSLMTSVPMNGTSIQWKNHDQNNHNTDRSSHKDSMN
B3: ETA, wild type, as used in the size exclusion chromatography analysis with Fab301, P25101 Q235A (protein)
chain: DNPERYSTNLSNHVDDFTTFRGTELSFLVTTHQPTNLVLPSNGSMHNYCPQQTKITSAFKYINTVISCTIFIVGMVGNATLLRIIYQNKCMRNGPNALIASLALGDLIYVVIDLPINVFKLLAGRWPFDHNDFGVFLCKLFPFLQKSSVGITVLNLCALSVDRYRAVASWSRVQGIGIPLVTAIEIVSIWILSFILAIPEAIGFVMVPFEYRGEAHKTCMLNATSKFMEFYQDVKDWWLFGFYFCMPLVCTAIFYTLMTCEMLNRRNGSLRIALSEHLKQRREVAKTVFCLVVIFALCWFPLHLSRILKKTVYNEMDKNRCELLSFLLLMDYIGINLATMNSCINPIALYFVSKKFKNCFQSCLCCCCYQSKSLMTSVPMNGTSIQWKNHDQNNHNTDRSSHKDSMN
B4: ETA, wild type, as used in the size exclusion chromatography analysis with Fab301, P25101 G233A (protein)
chain: DNPERYSTNLSNHVDDFTTFRGTELSFLVTTHQPTNLVLPSNGSMHNYCPQQTKITSAFKYINTVISCTIFIVGMVGNATLLRIIYQNKCMRNGPNALIASLALGDLIYVVIDLPINVFKLLAGRWPFDHNDFGVFLCKLFPFLQKSSVGITVLNLCALSVDRYRAVASWSRVQGIGIPLVTAIEIVSIWILSFILAIPEAIGFVMVPFEYRAEQHKTCMLNATSKFMEFYQDVKDWWLFGFYFCMPLVCTAIFYTLMTCEMLNRRNGSLRIALSEHLKQRREVAKTVFCLVVIFALCWFPLHLSRILKKTVYNEMDKNRCELLSFLLLMDYIGINLATMNSCINPIALYFVSKKFKNCFQSCLCCCCYQSKSLMTSVPMNGTSIQWKNHDQNNHNTDRSSHKDSMN
B5: ETA, wild type, as used in the size exclusion chromatography analysis with Fab301, P25101 R232A (protein)
chain: DNPERYSTNLSNHVDDFTTFRGTELSFLVTTHQPTNLVLPSNGSMHNYCPQQTKITSAFKYINTVISCTIFIVGMVGNATLLRIIYQNKCMRNGPNALIASLALGDLIYVVIDLPINVFKLLAGRWPFDHNDFGVFLCKLFPFLQKSSVGITVLNLCALSVDRYRAVASWSRVQGIGIPLVTAIEIVSIWILSFILAIPEAIGFVMVPFEYAGEQHKTCMLNATSKFMEFYQDVKDWWLFGFYFCMPLVCTAIFYTLMTCEMLNRRNGSLRIALSEHLKQRREVAKTVFCLVVIFALCWFPLHLSRILKKTVYNEMDKNRCELLSFLLLMDYIGINLATMNSCINPIALYFVSKKFKNCFQSCLCCCCYQSKSLMTSVPMNGTSIQWKNHDQNNHNTDRSSHKDSMN
B6: ETA, wild type, as used in the size exclusion chromatography analysis with Fab301, P25101 F229A (protein)
chain: DNPERYSTNLSNHVDDFTTFRGTELSFLVTTHQPTNLVLPSNGSMHNYCPQQTKITSAFKYINTVISCTIFIVGMVGNATLLRIIYQNKCMRNGPNALIASLALGDLIYVVIDLPINVFKLLAGRWPFDHNDFGVFLCKLFPFLQKSSVGITVLNLCALSVDRYRAVASWSRVQGIGIPLVTAIEIVSIWILSFILAIPEAIGFVMVPAEYRGEQHKTCMLNATSKFMEFYQDVKDWWLFGFYFCMPLVCTAIFYTLMTCEMLNRRNGSLRIALSEHLKQRREVAKTVFCLVVIFALCWFPLHLSRILKKTVYNEMDKNRCELLSFLLLMDYIGINLATMNSCINPIALYFVSKKFKNCFQSCLCCCCYQSKSLMTSVPMNGTSIQWKNHDQNNHNTDRSSHKDSMN
B7: ETA, wild type, as used in the size exclusion chromatography analysis with Fab301, P25101 E230A (protein)
chain: DNPERYSTNLSNHVDDFTTFRGTELSFLVTTHQPTNLVLPSNGSMHNYCPQQTKITSAFKYINTVISCTIFIVGMVGNATLLRIIYQNKCMRNGPNALIASLALGDLIYVVIDLPINVFKLLAGRWPFDHNDFGVFLCKLFPFLQKSSVGITVLNLCALSVDRYRAVASWSRVQGIGIPLVTAIEIVSIWILSFILAIPEAIGFVMVPFAYRGEQHKTCMLNATSKFMEFYQDVKDWWLFGFYFCMPLVCTAIFYTLMTCEMLNRRNGSLRIALSEHLKQRREVAKTVFCLVVIFALCWFPLHLSRILKKTVYNEMDKNRCELLSFLLLMDYIGINLATMNSCINPIALYFVSKKFKNCFQSCLCCCCYQSKSLMTSVPMNGTSIQWKNHDQNNHNTDRSSHKDSMN

What follows are binders tested against Fab301, Fab fragment of the anti-ETA monoclonal antibody Getagozumab (assay: size exclusion chromatography). Conditions: chain shown with the change;; parent: est. 0 min; read off a plot.
Chain of Fab301, Fab fragment of the anti-ETA monoclonal antibody Getagozumab (chain, as listed by the source, chain 1 of 2): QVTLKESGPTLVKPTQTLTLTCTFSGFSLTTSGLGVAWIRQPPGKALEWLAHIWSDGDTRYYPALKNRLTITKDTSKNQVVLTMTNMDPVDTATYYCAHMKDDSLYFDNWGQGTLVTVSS
Chain of Fab301, Fab fragment of the anti-ETA monoclonal antibody Getagozumab (chain, as listed by the source, chain 2 of 2): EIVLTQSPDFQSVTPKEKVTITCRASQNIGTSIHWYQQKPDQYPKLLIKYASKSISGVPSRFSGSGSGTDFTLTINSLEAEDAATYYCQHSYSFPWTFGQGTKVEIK
B1 showed an other: Δt (SEC retention time of mutant–Fab301 complex minus WT–Fab301 complex) of 0.019 min.
B2 gave an other: Δt (SEC retention time of mutant–Fab301 complex minus WT–Fab301 complex) of 0.039 min.
With B3 the other: Δt (SEC retention time of mutant–Fab301 complex minus WT–Fab301 complex) was 0.023 min.
B4 was tested, and the other: Δt (SEC retention time of mutant–Fab301 complex minus WT–Fab301 complex) was 0.056 min.
B5 was tested, and the other: Δt (SEC retention time of mutant–Fab301 complex minus WT–Fab301 complex) was 0.054 min.
For B6, the other: Δt (SEC retention time of mutant–Fab301 complex minus WT–Fab301 complex) was -0.004 min.
B7 showed an other: Δt (SEC retention time of mutant–Fab301 complex minus WT–Fab301 complex) of 0.026 min.
